In patent US20120207788A1 (BIOMAY, published 2012):

B1: hybrid molecule B (other)
chain: MAVKQAYAATVATAPEVKYTVFETALKKAITAMSEAQKAAKPAAAATATATAAVGAATGAATAATGGYKVAEEVKVIPAGELQVIEKVDAAFKVAATAANAAPANDKFTVFEAAFNDAIKASTGGAYESYKFIPALEAIPKVPPGPNITATYGDKWLDAKSTWYGKPTGAGPKDNGGACGYKDVDKPPFSGMTGCGNTPIFKSAGELELQFRRVKCKYPEGTKVTFHVEKGSNPNYLALLVKYVNGDGDVVAVDIKEKGKDKWIELKESWGAIWRIDTPDKLHHHHHH
B2: hybrid molecule C (other)
chain: MGAASNKAFAEGLSGEPKGAAESSSKAALTSKLDAAYKLAYKTAEGATPEAKYDAYVATLSEALRIIAGTLEVHAVKPAADLGYGPATPAAPAAGYTPATPAAPAEAAPAGKATTEEQKLIEKINAGFKAALAAAAGVQPADKYRTFVATFSGRGCGSCFEIKCTKPEACSGEPVVVHITDDNEEPIAPYHFDLSGHAFGAMAKKGDEQKLRTGPFTVRYTTEGGTKTEAEDVIPEGWKADTSYESKHHHHHH
B3: hybrid molecule P (other)
chain: MGAASNKAFAEGLSGEPKGAAESSSKAALTSKLDAAYKLAYKTAEGATPEAKYDAYVATLSEALRIIAGTLEVHAVKPAADLGYGPATPAAPAAGYTPATPAAPAEAAPAGKATTEEQKLIEKINAGFKAALAAAAGVQPADKYRTFVATFSGRGCGSCFEIKCTKPEACSGEPVVVHITDDNEEPIAPYHFDLSGHAFGAMAKKGDEQKLRTGPFTVRYTTEGGTKTEAEDVIPEGWKADTSYESKAEEVKVIPAGELQVIEKVDAAFKVAATAANAAPAAVKQAYAATVATAPEVKYTVFETALKKAITAMSEAQKAAKPAAAATATATAAVGAATGAATAATGGYKVNDKFTVFEAAFNDAIKASTGGAYESYKFIPALEAIPKVPPGPNITATYGDKWLDAKSTWYGKPTGASAGELELQFRRVKCKYPEGTKVTFHVEKGSNPNYLALLVKYVNGDGDVVAVDIKEKGKDKWIELKESWGAIWRIDTPDKLGPKDNGGACGYKDVDKPPFSGMTGCGNTPIFKHHHHHH
B4: hybrid molecule Q (other)
chain: MFRFLTEKGMKNVFDDVVPEKYTIGATYAPEEDEWVAMTKGEGGVWTFDSEEPLQGPFNADKYKTFEAAFTVSSKRNLADAVSKAPQLVPKLDEVYNAAYNAADHAAPEDKYEAFVLHFSEALRIIAGTPEVHAVKPGAVPKVTFTVEKGSNEKHLAVLVKYEGDTMAEVELREHGSHHHHHH

These binders were tested against serum IgE from grass pollen allergic patients (assay: cell-based or functional assay).

| CD203c expression on human basophils isolated from grass pollen allergic patients | Binder |
| --- | --- |
| 10 fold | B1 |
| 10 fold | B2 |
| 10 fold | B3 |
| 10 fold | B4 |
